The results in this text go back to patent publication EP2014310A2 (Dyax Corporation, dated 2009).

Bridge positions count the residues as written; N and C are the ends. Ends that are not written are not given here. I, II: the chains in the order shown.

For assay [1], the target named is T1, human KDR-Fc fusion (R&D Systems #357-KD-050) (human, UniProt P35968 20-764).
T1 construct: bought
As to the kind of experiment: SPR. (SPR reads the build-up and loss of mass on a sensor chip optically.)

In assay [2] the target is T2, KDR on transiently KDR-transfected 293H cells (human, UniProt P35968 20-1356).
T2 construct: whole, on cells; also called KDR-expressing cells
T2 sequence (P35968 20-1356): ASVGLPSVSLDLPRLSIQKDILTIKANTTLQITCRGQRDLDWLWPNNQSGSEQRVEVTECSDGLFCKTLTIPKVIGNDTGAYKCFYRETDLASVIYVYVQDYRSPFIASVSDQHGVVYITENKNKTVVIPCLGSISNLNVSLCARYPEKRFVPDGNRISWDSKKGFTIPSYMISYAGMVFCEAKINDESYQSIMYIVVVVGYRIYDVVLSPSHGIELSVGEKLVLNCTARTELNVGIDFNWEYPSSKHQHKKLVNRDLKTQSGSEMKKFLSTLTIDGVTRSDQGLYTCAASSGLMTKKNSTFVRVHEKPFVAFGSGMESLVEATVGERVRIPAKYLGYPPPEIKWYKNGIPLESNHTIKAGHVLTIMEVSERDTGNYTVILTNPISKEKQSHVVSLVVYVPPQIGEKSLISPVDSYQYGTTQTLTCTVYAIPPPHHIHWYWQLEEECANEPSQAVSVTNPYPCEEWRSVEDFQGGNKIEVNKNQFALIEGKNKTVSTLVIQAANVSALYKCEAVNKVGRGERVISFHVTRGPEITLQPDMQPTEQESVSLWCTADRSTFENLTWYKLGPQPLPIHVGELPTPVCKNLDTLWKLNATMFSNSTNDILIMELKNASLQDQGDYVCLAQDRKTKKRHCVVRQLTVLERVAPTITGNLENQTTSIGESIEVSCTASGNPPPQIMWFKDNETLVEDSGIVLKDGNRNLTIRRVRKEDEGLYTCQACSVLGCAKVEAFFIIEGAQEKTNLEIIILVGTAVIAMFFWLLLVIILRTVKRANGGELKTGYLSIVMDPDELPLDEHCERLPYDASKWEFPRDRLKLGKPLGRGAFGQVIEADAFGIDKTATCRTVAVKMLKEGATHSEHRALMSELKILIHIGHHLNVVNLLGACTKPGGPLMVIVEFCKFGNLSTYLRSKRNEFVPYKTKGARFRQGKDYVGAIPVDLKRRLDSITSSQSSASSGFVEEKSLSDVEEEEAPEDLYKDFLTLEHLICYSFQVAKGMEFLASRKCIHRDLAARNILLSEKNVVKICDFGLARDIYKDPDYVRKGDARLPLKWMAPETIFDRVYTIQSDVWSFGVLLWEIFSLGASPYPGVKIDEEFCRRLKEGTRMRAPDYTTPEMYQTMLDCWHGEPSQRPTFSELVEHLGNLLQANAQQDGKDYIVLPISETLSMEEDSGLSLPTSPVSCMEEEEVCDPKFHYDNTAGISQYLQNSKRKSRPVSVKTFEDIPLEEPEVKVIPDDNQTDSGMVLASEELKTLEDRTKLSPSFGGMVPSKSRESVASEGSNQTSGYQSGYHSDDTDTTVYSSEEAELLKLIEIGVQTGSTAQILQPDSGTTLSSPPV
As to the kind of experiment: displacement of 5.5 nM streptavidin-HRP/binding peptide complex from KDR-transfected 293H cells.

In assay [3] the target is T1, human KDR-Fc fusion (R&D Systems …). As to the kind of experiment: fluorescence anisotropy, fluorescein-labeled peptide. In general terms: Fluorescence polarisation rises when a labelled molecule tumbles more slowly, as on binding a larger partner.
For assay [4], the target named is VEGF165 (Peprotech #100-20) (UniProt P15692-4 27-191). As to the kind of experiment: fluorescence anisotropy, fluorescein-labeled peptide, VEGF alone.
VEGF165 (Peprotech #100-20), sequence (P15692 other isoform, or with tags, fused parts or gaps limits assumed): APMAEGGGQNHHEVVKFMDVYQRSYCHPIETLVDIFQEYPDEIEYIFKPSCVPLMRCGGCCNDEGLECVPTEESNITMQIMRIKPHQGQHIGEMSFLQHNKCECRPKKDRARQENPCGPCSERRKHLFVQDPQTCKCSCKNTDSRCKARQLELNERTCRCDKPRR
In assay [5] the target is T3, KDR/VEGF complex (KDR-Fc mixed or saturated with VEGF) (human, UniProt P35968 20-764; P15692 27-191).
T3 construct: anisotropy: two fold molar excess of VEGF mixed with KDR-Fc; Biacore: KDR-Fc chip saturated with VEGF; also called KDR:VEGF165 complex
T3 sequence (P35968 20-764, chain 1 of 2): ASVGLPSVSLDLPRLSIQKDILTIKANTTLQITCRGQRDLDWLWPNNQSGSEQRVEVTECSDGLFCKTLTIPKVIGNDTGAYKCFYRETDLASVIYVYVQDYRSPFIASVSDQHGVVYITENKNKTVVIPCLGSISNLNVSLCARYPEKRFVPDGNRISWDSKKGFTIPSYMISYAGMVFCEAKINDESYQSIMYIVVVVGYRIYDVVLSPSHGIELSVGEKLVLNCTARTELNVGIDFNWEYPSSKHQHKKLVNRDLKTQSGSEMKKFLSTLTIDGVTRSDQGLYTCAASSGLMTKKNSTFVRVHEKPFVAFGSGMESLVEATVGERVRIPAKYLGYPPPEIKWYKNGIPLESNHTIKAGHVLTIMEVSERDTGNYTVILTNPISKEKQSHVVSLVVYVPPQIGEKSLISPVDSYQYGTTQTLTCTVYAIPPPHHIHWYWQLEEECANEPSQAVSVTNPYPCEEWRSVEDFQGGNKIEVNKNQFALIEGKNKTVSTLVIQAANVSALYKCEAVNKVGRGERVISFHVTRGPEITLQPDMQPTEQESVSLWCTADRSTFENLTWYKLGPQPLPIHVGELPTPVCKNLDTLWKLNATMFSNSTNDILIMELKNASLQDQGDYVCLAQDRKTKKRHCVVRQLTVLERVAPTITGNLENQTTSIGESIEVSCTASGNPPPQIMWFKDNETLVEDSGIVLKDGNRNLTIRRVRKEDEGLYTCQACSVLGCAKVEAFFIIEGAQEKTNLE
T3 sequence (P15692 other isoform, or with tags, fused parts or gaps, chain 2 of 2): as the sequence (P15692 other isoform, or with tags, fused parts or gaps limits assumed) above
As to the kind of experiment: fluorescence anisotropy, fluorescein-labeled peptide, KDR-Fc with two fold excess VEGF.

Assay [6] has as its target T4, murine KDR-Fc fusion (R&D Systems #443-KD-050) (murine, UniProt P35918 20-762).
T4 construct: bought; also called recombinant murine KDR-Fc; rmKDR-Fc
As to the kind of experiment: BIAcore, KD1 = kd1/ka1, fluorescein-labeled peptide, murine KDR-Fc 2700RU.

In assay [7] the target is T4, murine KDR-Fc fusion (R&D Systems …). As to the kind of experiment: BIAcore, KD1 = kd1/ka1, fluorescein-labeled peptide, murine KDR-Fc 5000RU.
Assay [8] deals with KDR on human umbilical vein endothelial cells (HUVECs) (human, UniProt P35968 20-1356). As to the kind of experiment: cell-based or functional assay.
KDR on human umbilical vein endothelial cells (HUVECs), sequence (P35968 20-1356): as the sequence (P35968 20-1356) above
Assay [9] addresses T1, human KDR-Fc fusion (R&D Systems …). As to the kind of experiment: Biacore steady state at the higher immobilization densities.
The target is the same in assay [10]. As to the kind of experiment: Biacore steady state, KD1 of double rectangular hyperbola, KDR-Fc 1600RU.
Assay [11] has the same target. As to the kind of experiment: Biacore steady state, KD1 of double rectangular hyperbola, KDR-Fc 3000RU.
Assay [12] shares this target. As to the kind of experiment: Biacore steady state, KD1 of double rectangular hyperbola, KDR-Fc 6000RU.
The target in assay [13] is human KDR-Fc fusion (R&D Systems #357-KD-050) (human) (UniProt P35968). As to the kind of experiment: SPR, reference D2.
human KDR-Fc fusion (R&D Systems #357-KD-050) (human), sequence (P35968 20-764): as the sequence (P35968 20-764, chain 1 of 2) above
The target in assay [14] is T4, murine KDR-Fc fusion (R&D Systems …). As to the kind of experiment: BIAcore, KD1 = kd1/ka1, murine KDR-Fc 2700RU.
Assay [15] has the same target. As to the kind of experiment: BIAcore, KD1 = kd1/ka1, murine KDR-Fc 5000RU.
For assay [16], the target named is T2, KDR on transiently KDR-transfected 293H …. As to the kind of experiment: displacement of 5.5 nM peptide/streptavidin-HRP complex from KDR-transfected 293H cells.
The target in assay [17] is T1, human KDR-Fc fusion (R&D Systems …). As to the kind of experiment: Biacore, KDR-Fc on CM5 chip, unlabeled peptide.
Assay [18] deals with KDR on transiently KDR-transfected 293H cells (human) (UniProt P35968). As to the kind of experiment: competition with 300 pM 125I-VEGF on KDR-transfected 293H cells, peptide 30 µM.
KDR on transiently KDR-transfected 293H cells (human), sequence (P35968 20-1356): as the sequence (P35968 20-1356) above
Assay [19] has the same target. As to the kind of experiment: competition with 300 pM 125I-VEGF on KDR-transfected 293H cells, peptide 0.3 µM.

T4 sequence (P35918 20-762): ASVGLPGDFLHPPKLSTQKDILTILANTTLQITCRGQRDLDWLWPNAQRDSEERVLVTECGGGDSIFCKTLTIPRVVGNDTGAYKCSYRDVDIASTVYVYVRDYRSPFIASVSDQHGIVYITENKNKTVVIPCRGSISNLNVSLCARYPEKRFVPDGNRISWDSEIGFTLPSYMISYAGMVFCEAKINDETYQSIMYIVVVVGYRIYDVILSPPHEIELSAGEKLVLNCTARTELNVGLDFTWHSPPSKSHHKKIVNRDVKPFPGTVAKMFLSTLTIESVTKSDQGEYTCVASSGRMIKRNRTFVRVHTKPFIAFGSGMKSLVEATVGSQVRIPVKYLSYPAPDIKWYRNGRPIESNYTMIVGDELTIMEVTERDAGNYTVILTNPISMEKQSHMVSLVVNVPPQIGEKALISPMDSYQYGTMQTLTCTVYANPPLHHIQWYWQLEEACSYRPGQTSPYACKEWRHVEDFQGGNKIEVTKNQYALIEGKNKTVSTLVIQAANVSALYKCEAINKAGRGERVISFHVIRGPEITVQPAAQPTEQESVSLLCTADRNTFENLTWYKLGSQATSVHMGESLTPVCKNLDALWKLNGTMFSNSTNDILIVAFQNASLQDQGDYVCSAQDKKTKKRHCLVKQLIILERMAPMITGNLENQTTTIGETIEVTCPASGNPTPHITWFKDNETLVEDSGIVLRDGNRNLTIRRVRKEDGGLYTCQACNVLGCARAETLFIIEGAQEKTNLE
T1 sequence (P35968 20-764): as the sequence (P35968 20-764, chain 1 of 2) above

B1: tail-to-tail heterodimer comprising the polypeptides of SEQ ID NO:305 and SEQ ID NO:306 (peptide)
peptide 1: AQEPEGYAYWEVITLYHEEDGDGGK
peptide 2: AQAFPRFGGDDYWIQQYLRYTDGGK
modifications: not fully specified (bridges); also: tail-to-tail linker not given here
With B1, the Kd (as a rule, the constant that tells how readily two partners part at equilibrium) in [1] is 11 nM.

Consider Ac-AGPTWKEDDWYYEWLFGTGGGK-NH2 (lactam 6-13) [SEQ ID NO:454, lactam disulfide bridge replacement analog], for which the IC50 – broadly, the concentration that gives 50% inhibition – in assay [2] worked out at 108 nM.

B2: SEQ ID NO:320 (peptide)
peptide: Ac-AGMPWCVEKDHWDCWWWGTGGGK-NH2
modifications: disulfide 6-14 (inferred); not fully specified; also: C-terminal Lys fluorescein-labeled in some assay forms
For the molecule B2, the binding result in assay [3] is reported as “no binding”. Moreover, the Kd in [4] was 10000 nM; in [5], 140 nM.

For the molecule Ac-AGPTWCEDDWYYCWLFGTGGGK-NH2 (disulfide 6-13 (inferred); not fully specified) [SEQ ID NO:277], the Kd in assay [6] was determined as 36.4 nM; in assay [7], 33.6 nM.

B3: D6, peptide heterodimer composed of SEQ ID NO:277 and SEQ ID NO:294 (peptide)
peptide 1: AGPTWCEDDWYYCWLFGTGGGK
peptide 2: GDSRVCWEDSWGGEVCFRYDPGGGK
modifications: linker (positions not given here) via glutaric acid; disulfide I:6-I:13, II:6-II:16 (inferred); also: heterodimer joined by glutaric acid linker, attachment places not given here
notes: made with glutaric acid bis N-hydroxysuccinimidyl ester
As for B3, the “IC50, VEGF-induced migration of HUVECs” value in assay [8] was approximately 12.5 nM. Also, the Kd was approximately 0.6 nM in assay [9], 46 nM in assay [10], 25.5 nM in assay [11] and 17 nM in assay [12].

B4: dimer 1 (D1) (peptide)
peptide 1: Ac-AGPTWCEDDWYYCWLFGTGGGK
peptide 2: Ac-VCWEDSWGGEVCFRYDPGGG
modifications: cysteine pairing not given here; also: heterodimer, C-terminal Lys joined through Biotin-JJK-glutaryl-JJ linker to the second peptide, amide, C-terminus joined to a lysine amide of the linker
Regarding B4, the fold higher affinity than D2 in [13] was 10 fold. For the same molecule, the “IC50, VEGF-induced phosphorylation of KDR in HUVECs” value in [8] was 0.5 to 1 nM. Further, the Kd in assay [14] is 17.5 nM; in assay [15], 16 nM.

DWYYGGGK [SEQ ID NO:462, fragment of SEQ ID NO:356 (Asp-Trp-Tyr-Tyr motif with Gly-Gly-Gly-Lys)] registered a concentration for half-maximal inhibition (IC50) in [16] of 850 nM. That is a sub-micromolar value.

Ac-GDSRVCWEDSWGGEVCFRYDPGGGK-NH2 (not fully specified; cysteine pairing not given here) [SEQ ID NO:294]: the “VEGF-induced KDR phosphorylation in HUVECs” value in assay [8] is not below 50 % inhibition at 10 µM. The same molecule had a Kd in assay [17] of 120 nM. In addition, the % inhibition of 125I-labeled VEGF binding in assay [18] was determined as 96.3%; in assay [19], 52.3%.
